Experimental data from PMC9813773, “LACC1 bridges NOS2 and polyamine metabolism in inflammatory macrophages” (Nature, 2022).
Numbering of substitutions follows the chain as printed. Numbers in names are those of the source.

B1: mLACC1 (Mus musculus) (protein)
chain: MAEAVLIDLSGLQLNAQKNCHETLLETLDGIHYHHAPKAKFLCIICCRNASKEKDGEYGLCELEAGNGFSRLAGKFETVSHPCLAASLYTIKQKIDEENLSCIKVIVPEHRKLLMKAYVGQLFTEVYEFEFEDLQGAWRDSLLKPSTGINVTTTQELEDIQHEIETYLRSLPALKGDLTIVTSPLIPDNFLHGFTTRTGGISSVPTLSSLNLFSSSKRRDPKVVVQENVRRLANAAGFNAEKFYRIKTDHASEVWVMGKKEPESYDGIVTNQRGVTITALGADCIPIVFADPVKKACGVAHSGWKGTLLGVAMATVNAMIAEYGCDVEDIIVVLGPSVGSCCFTLPKESAVSFHSLHPSCVRHFDSPRPYVDIRKATRILLERGGILPQNIQDQKEDLDLCTSCHPEKFFSHVRDGLNFGTQIGFISLRE
notes: codon-optimized synthetic cDNA in pMAL-C5x (MBP fusion), E. coli BL21(DE3), amylose resin; tag cleavage not described
B2: hLACC1 (Homo sapiens) (protein)
chain: MAEAVLIDLFGLKLNSQKNCHQTLLKTLNAVQYHHAAKAKFLCIMCCSNISYERDGEQDNCEIETSNGLSALLEEFEIVSCPSMAATLYTIKQKIDEKNLSSIKVIVPRHRKTLMKAFIDQLFTDVYNFEFEDLQVTFRGGLFKQSIEINVITAQELRGIQNEIETFLRSLPALRGKLTIITSSLIPDIFIHGFTTRTGGISYIPTLSSFNLFSSSKRRDPKVVVQENLRRLANAAGFNVEKFYRIKTHHSNDIWIMGRKEPDSYDGITTNQRGVTIAALGADCIPIVFADPVKKACGVAHAGWKGTLLGVAMATVNAMIAEYGCSLEDIVVVLGPSVGPCCFTLPRESAEAFHNLHPACVQLFDSPNPCIDIRKATRILLEQGGILPQNIQDQNQDLNLCTSCHPDKFFSHVRDGLNFGTQIGFISIKE
notes: as for B1
B3: hLACC1 (Homo sapiens; C284R) (protein)
chain: B2 chain with C284R
notes: as for B1
B4: hLACC1 (Homo sapiens; K38E) (protein)
chain: B2 chain with K38E
notes: as for B1
B5: hLACC1 (Homo sapiens; I254V) (protein)
chain: B2 chain with I254V
notes: as for B1

Columns and labels:
[1] = substrate: NC(=O)NCCC[C@H](N)C(=O)O; assay: L-Orn formation by LC-QQQ-MS, Michaelis-Menten; format: biochemical, Mus musculus; conditions: 5-500 μM L-Cit, PBS pH 7.4, 1 μM ZnSO4, 37°C
[2] = substrate: NC(=O)NCCC[C@H](N)C(=O)O; assay: L-Orn formation by LC-QQQ-MS, Michaelis-Menten; format: biochemical, Homo sapiens; conditions: 5-500 μM L-Cit, PBS pH 7.4, 1 μM ZnSO4, 37°C

| Protein | Km [1] [µM] | kcat [1] [s⁻¹] | Km [2] [µM] | kcat [2] [s⁻¹] |
| --- | --- | --- | --- | --- |
| B1 | 117.2 | 0.0055 | – | – |
| B2 | – | – | 163.7 | 0.00567 |
| B3 | – | – | 155.8 | 0.00275 |
| B4 | – | – | 81.58 | 0.0051 |
| B5 | – | – | 181.3 | 0.00433 |
